Results from patent US8455448B2, “Myostatin isoform” (Myostin Therapeutics Pty Ltd, priority 2004, dated 2013).

T1: myostatin (Bos taurus, UniProt O18836)
T1 sequence (O18836 267-375): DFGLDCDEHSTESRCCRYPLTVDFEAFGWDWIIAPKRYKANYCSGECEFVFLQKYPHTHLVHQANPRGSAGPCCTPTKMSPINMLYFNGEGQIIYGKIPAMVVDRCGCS


Target: T1, myostatin
Experiment: MSV/canonical myostatin competition in C2C12 proliferation assay
Assay type: cell-based, bovine
Details: 1.5 μg/ml Mstn
Experimental: Competition of roMSV65 with canonical myostatin was carried out with C2C12 murine myoblasts. Myoblasts were seeded in 96-well tissue culture plates (Nunc, Roskilde, Denmark) at a cell density of 1000 cells per well in 200 μl of Dulbecco's modified Eagle's medium (DMEM, Invitrogen, California) supplemented with foetal bovine serum (FBS, 10% v/v, Invitrogen), penicillin (1×10^5 IU/l, Sigma, St Louis, Mo., USA) and streptomycin (100 mg/l, Sigma) buffered with NaHCO3 containing phenol red (7.22 nmol/l) as a pH indicator, and incubated overnight at 37° C. with 5% CO2. The medium was replaced with DMEM 10% FBS test medium containing no added protein, 1.5 or 2.5 μg/ml recombinant myostatin alone and with combination of 1, 2, 4, 10, 20 molar ratio of roMSV65, and the same amounts of roMSV65 without myostatin in a semi-random arrangement of eight replicates (n=8) for each test medium. Plates were incubated at 37° C. with 5% CO2 for 72 hours, and then the medium was removed. […] The plates were gently shaken and the absorbance was measured at 655 nm using a microplate photometer (VersaMax, Molecular Devices, CA).
Competition of roMSV47 with canonical myostatin was carried out with C2C12 murine myoblasts. […] The plates were gently shaken and the absorbance was measured at 655 nm using a microplate photometer (VersaMax, Molecular Devices, CA). […]

Row | restoring of myostatin inhibited proliferation (1:10 molar ratio of myostatin to MSV, 69 h, FIG. 11) | Molecule | overcoming myostatin-induced inhibition of proliferation (48 h, FIG. 9)
1 | ineffective at restoring proliferation | roMSV47: 47 amino acid C-terminal mature ovine MSV fragment (SEQ ID NO: 50), recombinant from E. coli (IIFLEVYIQFCSILGEAVFKRQSKSIHFCQNFKIIACLCNTAAFRMK; Ovis aries) | 
2 |  | roMSV65: 65 amino acid C-terminal peptide of ovine MSV (SEQ ID NO: 49) expressed as recombinant protein in E. coli (protein, Ovis aries) VHFYTPPYGQWIFHKERKIIFLEVYIQFCSILGEAVFKRQSKSIHFCQNFKIIACLCNTAAFRMK | overcame myostatin-induced inhibition of proliferation
